B1: Speckle-type POZ protein (Homo sapiens), O43791 (parent)
chain: MSRVPSPPPPAEMSSGPVAESWCYTQIKVVKFSYMWTINNFSFCREEMGEVIKSSTFSSGANDKLKWCLRVNPKGLDEESKDYLSLYLLLVSCPKSEVRAKFKFSILNAKGEETKAMESQRAYRFVQGKDWGFKKFIRRDFLLDEANGLLPDDKLTLFCEVSVVQDSVNISGQNTMNMVKVPECRLADELGGLWENSRFTDCCLCVAGQEFQAHKAILAARSPVFSAMFEHEMEESKKNRVEINDVEPEVFKEMMCFIYTGKAPNLDKMADDLLAAADKYALERLKVMCEDALCSNLSVENAAEILILADLHSADQLKTQAVDFINYHASDVLETSGWKSMVVSHPHLVAEAYRSLASAQCPFLGPPRKRLKQS

Variants of: B1
Conditions: with hnf1a_human HNF1A

Row | effect of a mutation on the interaction | Variant
1 | with no effect | MSRVPSPPPPAEMSSGPVAESWCYTQIKVVKFSYMWTINNFSFCREEMGEVIKSSTFSSGANDKLKWCLRVNPKGLDEESKDYLSLYLLLVSCPKSEVRAKFKFSILNAKGEETKAMESQRAYRFVQGKDWGVKKFIRRDFLLDEANGLLPDDKLTLFCEVSVVQDSVNISGQNTMNMVKVPECRLADELGGLWENSRFTDCCLCVAGQEFQAHKAILAARSPVFSAMFEHEMEESKKNRVEINDVEPEVFKEMMCFIYTGKAPNLDKMADDLLAAADKYALERLKVMCEDALCSNLSVENAAEILILADLHSADQLKTQAVDFINYHASDVLETSGWKSMVVSHPHLVAEAYRSLASAQCPFLGPPRKRLKQS [F133V]

Variants of: B1
Conditions: with igf1r_human IGF1R

Row | effect of a mutation on the interaction | Variant
2 | with no effect | MSRVPSPPPPAEMSSGPVAESWCYTQIKVVKFSYMWTINNFSFCREEMGEVIKSSTFSSGANDKLKWCLRVNPKGLDEESKDYLSLYLLLVSCPKSEVRAKFKFSILNAKGEETKAMESQRAYRFVQGKDWGVKKFIRRDFLLDEANGLLPDDKLTLFCEVSVVQDSVNISGQNTMNMVKVPECRLADELGGLWENSRFTDCCLCVAGQEFQAHKAILAARSPVFSAMFEHEMEESKKNRVEINDVEPEVFKEMMCFIYTGKAPNLDKMADDLLAAADKYALERLKVMCEDALCSNLSVENAAEILILADLHSADQLKTQAVDFINYHASDVLETSGWKSMVVSHPHLVAEAYRSLASAQCPFLGPPRKRLKQS [F133V]

Variants of: B1
Conditions: with il7ra_human IL7R

Row | effect of a mutation on the interaction | Variant
3 | with no effect | MSRVPSPPPPAEMSSGPVAESWCYTQIKVVKFSYMWTINNFSFCREEMGEVIKSSTFSSGANDKLKWCLRVNPKGLDEESKDYLSLYLLLVSCPKSEVRAKFKFSILNAKGEETKAMESQRAYRFVQGKDWGVKKFIRRDFLLDEANGLLPDDKLTLFCEVSVVQDSVNISGQNTMNMVKVPECRLADELGGLWENSRFTDCCLCVAGQEFQAHKAILAARSPVFSAMFEHEMEESKKNRVEINDVEPEVFKEMMCFIYTGKAPNLDKMADDLLAAADKYALERLKVMCEDALCSNLSVENAAEILILADLHSADQLKTQAVDFINYHASDVLETSGWKSMVVSHPHLVAEAYRSLASAQCPFLGPPRKRLKQS [F133V]

Variants of: B1
Conditions: with int12_human INTS12, Q96CB8
int12_human INTS12, Q96CB8, sequence (Q96CB8 whole entry): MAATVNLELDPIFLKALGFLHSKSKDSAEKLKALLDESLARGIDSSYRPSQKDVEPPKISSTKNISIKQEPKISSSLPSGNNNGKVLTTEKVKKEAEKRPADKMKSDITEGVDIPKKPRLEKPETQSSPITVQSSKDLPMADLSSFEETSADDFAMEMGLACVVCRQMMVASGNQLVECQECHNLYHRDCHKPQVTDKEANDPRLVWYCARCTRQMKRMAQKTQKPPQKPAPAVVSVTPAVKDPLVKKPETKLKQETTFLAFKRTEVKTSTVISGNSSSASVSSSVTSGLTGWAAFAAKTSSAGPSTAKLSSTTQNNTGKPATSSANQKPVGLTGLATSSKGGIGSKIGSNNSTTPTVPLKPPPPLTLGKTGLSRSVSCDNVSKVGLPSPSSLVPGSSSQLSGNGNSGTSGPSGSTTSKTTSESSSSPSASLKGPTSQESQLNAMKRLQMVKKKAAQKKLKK

Row | effect of a mutation on the interaction | Variant
4 | with no effect | MSRVPSPPPPAEMSSGPVAESWCYTQIKVVKFSYMWTINNFSFCREEMGEVIKSSTFSSGANDKLKWCLRVNPKGLDEESKDYLSLYLLLVSCPKSEVRAKFKFSILNAKGEETKAMESQRAYRFVQGKDWGVKKFIRRDFLLDEANGLLPDDKLTLFCEVSVVQDSVNISGQNTMNMVKVPECRLADELGGLWENSRFTDCCLCVAGQEFQAHKAILAARSPVFSAMFEHEMEESKKNRVEINDVEPEVFKEMMCFIYTGKAPNLDKMADDLLAAADKYALERLKVMCEDALCSNLSVENAAEILILADLHSADQLKTQAVDFINYHASDVLETSGWKSMVVSHPHLVAEAYRSLASAQCPFLGPPRKRLKQS [F133V]

Variants of: B1
Conditions: with ist1_human IST1, P53990
ist1_human IST1, P53990, sequence (P53990 whole entry): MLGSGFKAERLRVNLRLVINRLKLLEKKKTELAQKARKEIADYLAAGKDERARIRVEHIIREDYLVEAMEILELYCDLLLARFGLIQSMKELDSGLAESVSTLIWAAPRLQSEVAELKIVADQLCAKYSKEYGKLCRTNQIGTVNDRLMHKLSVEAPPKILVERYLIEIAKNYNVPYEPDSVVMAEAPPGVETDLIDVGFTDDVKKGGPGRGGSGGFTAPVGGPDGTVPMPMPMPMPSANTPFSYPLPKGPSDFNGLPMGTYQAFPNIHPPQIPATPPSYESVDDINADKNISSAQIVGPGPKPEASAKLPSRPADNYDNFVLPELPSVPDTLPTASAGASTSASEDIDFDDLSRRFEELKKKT

Row | effect of a mutation on the interaction | Variant
5 | with no effect | MSRVPSPPPPAEMSSGPVAESWCYTQIKVVKFSYMWTINNFSFCREEMGEVIKSSTFSSGANDKLKWCLRVNPKGLDEESKDYLSLYLLLVSCPKSEVRAKFKFSILNAKGEETKAMESQRAYRFVQGKDWGVKKFIRRDFLLDEANGLLPDDKLTLFCEVSVVQDSVNISGQNTMNMVKVPECRLADELGGLWENSRFTDCCLCVAGQEFQAHKAILAARSPVFSAMFEHEMEESKKNRVEINDVEPEVFKEMMCFIYTGKAPNLDKMADDLLAAADKYALERLKVMCEDALCSNLSVENAAEILILADLHSADQLKTQAVDFINYHASDVLETSGWKSMVVSHPHLVAEAYRSLASAQCPFLGPPRKRLKQS [F133V]

Variants of: B1
Conditions: with jak1_human JAK1, P23458
jak1_human JAK1, P23458, sequence (P23458 whole entry): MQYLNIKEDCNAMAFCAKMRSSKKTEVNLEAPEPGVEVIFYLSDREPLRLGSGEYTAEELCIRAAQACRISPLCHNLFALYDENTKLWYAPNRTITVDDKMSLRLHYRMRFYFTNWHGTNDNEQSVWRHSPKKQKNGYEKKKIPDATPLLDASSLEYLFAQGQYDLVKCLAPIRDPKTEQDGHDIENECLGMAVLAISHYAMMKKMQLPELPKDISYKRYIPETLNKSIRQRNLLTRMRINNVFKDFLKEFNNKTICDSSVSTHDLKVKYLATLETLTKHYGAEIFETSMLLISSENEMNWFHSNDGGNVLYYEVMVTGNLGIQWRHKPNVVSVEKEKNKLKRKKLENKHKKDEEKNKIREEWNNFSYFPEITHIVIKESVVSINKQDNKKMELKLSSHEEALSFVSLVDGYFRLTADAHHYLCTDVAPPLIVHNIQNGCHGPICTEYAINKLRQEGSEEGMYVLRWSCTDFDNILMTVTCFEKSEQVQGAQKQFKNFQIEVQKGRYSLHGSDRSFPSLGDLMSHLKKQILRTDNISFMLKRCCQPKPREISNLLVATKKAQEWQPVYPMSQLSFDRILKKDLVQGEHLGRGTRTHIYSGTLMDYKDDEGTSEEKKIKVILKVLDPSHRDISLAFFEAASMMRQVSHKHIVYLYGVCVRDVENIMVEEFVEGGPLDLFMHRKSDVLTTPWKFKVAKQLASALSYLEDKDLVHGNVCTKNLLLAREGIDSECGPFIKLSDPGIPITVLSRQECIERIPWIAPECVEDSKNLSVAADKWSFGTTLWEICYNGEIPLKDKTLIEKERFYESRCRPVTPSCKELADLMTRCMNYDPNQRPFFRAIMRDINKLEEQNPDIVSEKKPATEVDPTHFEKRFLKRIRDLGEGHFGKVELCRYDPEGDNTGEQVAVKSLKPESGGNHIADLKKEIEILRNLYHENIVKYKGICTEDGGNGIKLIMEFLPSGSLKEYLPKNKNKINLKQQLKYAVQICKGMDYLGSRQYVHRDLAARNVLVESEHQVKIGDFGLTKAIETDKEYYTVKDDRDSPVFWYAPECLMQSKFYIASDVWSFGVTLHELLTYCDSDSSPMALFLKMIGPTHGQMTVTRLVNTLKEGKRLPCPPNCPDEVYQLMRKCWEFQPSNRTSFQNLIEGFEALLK

Row | effect of a mutation on the interaction | Variant
6 | with no effect | MSRVPSPPPPAEMSSGPVAESWCYTQIKVVKFSYMWTINNFSFCREEMGEVIKSSTFSSGANDKLKWCLRVNPKGLDEESKDYLSLYLLLVSCPKSEVRAKFKFSILNAKGEETKAMESQRAYRFVQGKDWGVKKFIRRDFLLDEANGLLPDDKLTLFCEVSVVQDSVNISGQNTMNMVKVPECRLADELGGLWENSRFTDCCLCVAGQEFQAHKAILAARSPVFSAMFEHEMEESKKNRVEINDVEPEVFKEMMCFIYTGKAPNLDKMADDLLAAADKYALERLKVMCEDALCSNLSVENAAEILILADLHSADQLKTQAVDFINYHASDVLETSGWKSMVVSHPHLVAEAYRSLASAQCPFLGPPRKRLKQS [F133V]

Variants of: B1
Conditions: with jak3_human JAK3, P52333
jak3_human JAK3, P52333, sequence (P52333 whole entry): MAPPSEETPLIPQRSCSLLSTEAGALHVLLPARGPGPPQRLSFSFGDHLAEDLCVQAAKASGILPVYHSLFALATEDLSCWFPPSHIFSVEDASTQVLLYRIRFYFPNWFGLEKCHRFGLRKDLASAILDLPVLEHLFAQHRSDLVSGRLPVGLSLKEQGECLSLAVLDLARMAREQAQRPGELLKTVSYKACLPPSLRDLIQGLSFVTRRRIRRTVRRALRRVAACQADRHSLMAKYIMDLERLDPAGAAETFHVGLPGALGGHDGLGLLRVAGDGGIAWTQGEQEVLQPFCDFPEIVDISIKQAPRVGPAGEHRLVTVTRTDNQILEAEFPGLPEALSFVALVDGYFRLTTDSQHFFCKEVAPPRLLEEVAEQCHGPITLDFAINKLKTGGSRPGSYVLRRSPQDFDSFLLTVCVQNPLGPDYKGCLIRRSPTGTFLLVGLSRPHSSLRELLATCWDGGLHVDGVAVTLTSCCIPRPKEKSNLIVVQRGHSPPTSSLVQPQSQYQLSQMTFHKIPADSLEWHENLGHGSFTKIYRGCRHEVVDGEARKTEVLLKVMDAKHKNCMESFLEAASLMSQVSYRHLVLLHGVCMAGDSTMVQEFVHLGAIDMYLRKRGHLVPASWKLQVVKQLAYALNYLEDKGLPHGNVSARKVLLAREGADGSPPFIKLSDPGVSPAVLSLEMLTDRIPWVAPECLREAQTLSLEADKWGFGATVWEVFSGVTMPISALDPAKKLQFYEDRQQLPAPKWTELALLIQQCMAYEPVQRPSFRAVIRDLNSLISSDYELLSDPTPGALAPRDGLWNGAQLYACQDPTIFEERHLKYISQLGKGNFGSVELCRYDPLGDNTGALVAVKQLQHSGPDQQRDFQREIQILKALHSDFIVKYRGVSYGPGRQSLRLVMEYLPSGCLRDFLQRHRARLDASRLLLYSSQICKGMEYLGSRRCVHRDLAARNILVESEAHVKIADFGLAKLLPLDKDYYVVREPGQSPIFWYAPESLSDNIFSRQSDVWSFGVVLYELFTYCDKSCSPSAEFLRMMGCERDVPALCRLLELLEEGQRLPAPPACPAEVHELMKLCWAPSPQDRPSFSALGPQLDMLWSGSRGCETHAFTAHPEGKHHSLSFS

Row | effect of a mutation on the interaction | Variant
7 | with no effect | MSRVPSPPPPAEMSSGPVAESWCYTQIKVVKFSYMWTINNFSFCREEMGEVIKSSTFSSGANDKLKWCLRVNPKGLDEESKDYLSLYLLLVSCPKSEVRAKFKFSILNAKGEETKAMESQRAYRFVQGKDWGVKKFIRRDFLLDEANGLLPDDKLTLFCEVSVVQDSVNISGQNTMNMVKVPECRLADELGGLWENSRFTDCCLCVAGQEFQAHKAILAARSPVFSAMFEHEMEESKKNRVEINDVEPEVFKEMMCFIYTGKAPNLDKMADDLLAAADKYALERLKVMCEDALCSNLSVENAAEILILADLHSADQLKTQAVDFINYHASDVLETSGWKSMVVSHPHLVAEAYRSLASAQCPFLGPPRKRLKQS [F133V]

Variants of: B1
Conditions: with kat2a_human KAT2A

Row | effect of a mutation on the interaction | Variant
8 | with no effect | MSRVPSPPPPAEMSSGPVAESWCYTQIKVVKFSYMWTINNFSFCREEMGEVIKSSTFSSGANDKLKWCLRVNPKGLDEESKDYLSLYLLLVSCPKSEVRAKFKFSILNAKGEETKAMESQRAYRFVQGKDWGVKKFIRRDFLLDEANGLLPDDKLTLFCEVSVVQDSVNISGQNTMNMVKVPECRLADELGGLWENSRFTDCCLCVAGQEFQAHKAILAARSPVFSAMFEHEMEESKKNRVEINDVEPEVFKEMMCFIYTGKAPNLDKMADDLLAAADKYALERLKVMCEDALCSNLSVENAAEILILADLHSADQLKTQAVDFINYHASDVLETSGWKSMVVSHPHLVAEAYRSLASAQCPFLGPPRKRLKQS [F133V]

Variants of: B1
Conditions: with kdm5a_human KDM5A

Row | effect of a mutation on the interaction | Variant
9 | with no effect | MSRVPSPPPPAEMSSGPVAESWCYTQIKVVKFSYMWTINNFSFCREEMGEVIKSSTFSSGANDKLKWCLRVNPKGLDEESKDYLSLYLLLVSCPKSEVRAKFKFSILNAKGEETKAMESQRAYRFVQGKDWGVKKFIRRDFLLDEANGLLPDDKLTLFCEVSVVQDSVNISGQNTMNMVKVPECRLADELGGLWENSRFTDCCLCVAGQEFQAHKAILAARSPVFSAMFEHEMEESKKNRVEINDVEPEVFKEMMCFIYTGKAPNLDKMADDLLAAADKYALERLKVMCEDALCSNLSVENAAEILILADLHSADQLKTQAVDFINYHASDVLETSGWKSMVVSHPHLVAEAYRSLASAQCPFLGPPRKRLKQS [F133V]

Variants of: B1
Conditions: with kdm5c_human KDM5C

Row | effect of a mutation on the interaction | Variant
10 | with no effect | MSRVPSPPPPAEMSSGPVAESWCYTQIKVVKFSYMWTINNFSFCREEMGEVIKSSTFSSGANDKLKWCLRVNPKGLDEESKDYLSLYLLLVSCPKSEVRAKFKFSILNAKGEETKAMESQRAYRFVQGKDWGVKKFIRRDFLLDEANGLLPDDKLTLFCEVSVVQDSVNISGQNTMNMVKVPECRLADELGGLWENSRFTDCCLCVAGQEFQAHKAILAARSPVFSAMFEHEMEESKKNRVEINDVEPEVFKEMMCFIYTGKAPNLDKMADDLLAAADKYALERLKVMCEDALCSNLSVENAAEILILADLHSADQLKTQAVDFINYHASDVLETSGWKSMVVSHPHLVAEAYRSLASAQCPFLGPPRKRLKQS [F133V]

Variants of: B1
Conditions: with vgfr2_human KDR

Row | effect of a mutation on the interaction | Variant
11 | with no effect | MSRVPSPPPPAEMSSGPVAESWCYTQIKVVKFSYMWTINNFSFCREEMGEVIKSSTFSSGANDKLKWCLRVNPKGLDEESKDYLSLYLLLVSCPKSEVRAKFKFSILNAKGEETKAMESQRAYRFVQGKDWGVKKFIRRDFLLDEANGLLPDDKLTLFCEVSVVQDSVNISGQNTMNMVKVPECRLADELGGLWENSRFTDCCLCVAGQEFQAHKAILAARSPVFSAMFEHEMEESKKNRVEINDVEPEVFKEMMCFIYTGKAPNLDKMADDLLAAADKYALERLKVMCEDALCSNLSVENAAEILILADLHSADQLKTQAVDFINYHASDVLETSGWKSMVVSHPHLVAEAYRSLASAQCPFLGPPRKRLKQS [F133V]

Variants of: B1
Conditions: with lims1_human LIMS1, P48059
lims1_human LIMS1, P48059, sequence (P48059 whole entry): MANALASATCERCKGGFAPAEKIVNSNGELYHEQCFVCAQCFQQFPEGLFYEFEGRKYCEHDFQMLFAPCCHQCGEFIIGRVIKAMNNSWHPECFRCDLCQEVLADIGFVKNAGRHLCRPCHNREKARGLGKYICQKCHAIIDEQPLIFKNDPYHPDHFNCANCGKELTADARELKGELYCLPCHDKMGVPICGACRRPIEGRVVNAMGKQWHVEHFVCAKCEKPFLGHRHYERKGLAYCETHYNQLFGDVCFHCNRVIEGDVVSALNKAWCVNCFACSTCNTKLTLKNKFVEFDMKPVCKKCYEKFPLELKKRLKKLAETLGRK

Row | effect of a mutation on the interaction | Variant
12 | with no effect | MSRVPSPPPPAEMSSGPVAESWCYTQIKVVKFSYMWTINNFSFCREEMGEVIKSSTFSSGANDKLKWCLRVNPKGLDEESKDYLSLYLLLVSCPKSEVRAKFKFSILNAKGEETKAMESQRAYRFVQGKDWGVKKFIRRDFLLDEANGLLPDDKLTLFCEVSVVQDSVNISGQNTMNMVKVPECRLADELGGLWENSRFTDCCLCVAGQEFQAHKAILAARSPVFSAMFEHEMEESKKNRVEINDVEPEVFKEMMCFIYTGKAPNLDKMADDLLAAADKYALERLKVMCEDALCSNLSVENAAEILILADLHSADQLKTQAVDFINYHASDVLETSGWKSMVVSHPHLVAEAYRSLASAQCPFLGPPRKRLKQS [F133V]

Variants of: B1
Conditions: with maga6_human MAGEA6, P43360
maga6_human MAGEA6, P43360, sequence (P43360 whole entry): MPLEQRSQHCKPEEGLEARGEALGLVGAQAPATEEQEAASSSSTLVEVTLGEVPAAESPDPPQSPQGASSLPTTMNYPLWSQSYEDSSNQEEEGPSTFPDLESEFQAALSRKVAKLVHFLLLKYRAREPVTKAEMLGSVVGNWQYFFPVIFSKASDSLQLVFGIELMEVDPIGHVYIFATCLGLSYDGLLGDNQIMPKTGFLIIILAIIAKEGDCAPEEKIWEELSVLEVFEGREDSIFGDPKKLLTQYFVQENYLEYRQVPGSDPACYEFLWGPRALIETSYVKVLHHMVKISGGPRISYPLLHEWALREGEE

Row | effect of a mutation on the interaction | Variant
13 | with no effect | MSRVPSPPPPAEMSSGPVAESWCYTQIKVVKFSYMWTINNFSFCREEMGEVIKSSTFSSGANDKLKWCLRVNPKGLDEESKDYLSLYLLLVSCPKSEVRAKFKFSILNAKGEETKAMESQRAYRFVQGKDWGVKKFIRRDFLLDEANGLLPDDKLTLFCEVSVVQDSVNISGQNTMNMVKVPECRLADELGGLWENSRFTDCCLCVAGQEFQAHKAILAARSPVFSAMFEHEMEESKKNRVEINDVEPEVFKEMMCFIYTGKAPNLDKMADDLLAAADKYALERLKVMCEDALCSNLSVENAAEILILADLHSADQLKTQAVDFINYHASDVLETSGWKSMVVSHPHLVAEAYRSLASAQCPFLGPPRKRLKQS [F133V]

Variants of: B1
Conditions: with m3k1_human MAP3K1, Q13233

Row | effect of a mutation on the interaction | Variant
14 | with no effect | MSRVPSPPPPAEMSSGPVAESWCYTQIKVVKFSYMWTINNFSFCREEMGEVIKSSTFSSGANDKLKWCLRVNPKGLDEESKDYLSLYLLLVSCPKSEVRAKFKFSILNAKGEETKAMESQRAYRFVQGKDWGVKKFIRRDFLLDEANGLLPDDKLTLFCEVSVVQDSVNISGQNTMNMVKVPECRLADELGGLWENSRFTDCCLCVAGQEFQAHKAILAARSPVFSAMFEHEMEESKKNRVEINDVEPEVFKEMMCFIYTGKAPNLDKMADDLLAAADKYALERLKVMCEDALCSNLSVENAAEILILADLHSADQLKTQAVDFINYHASDVLETSGWKSMVVSHPHLVAEAYRSLASAQCPFLGPPRKRLKQS [F133V]

Variants of: B1
Conditions: with mk10_human MAPK10, P53779
mk10_human MAPK10, P53779, sequence (P53779 whole entry): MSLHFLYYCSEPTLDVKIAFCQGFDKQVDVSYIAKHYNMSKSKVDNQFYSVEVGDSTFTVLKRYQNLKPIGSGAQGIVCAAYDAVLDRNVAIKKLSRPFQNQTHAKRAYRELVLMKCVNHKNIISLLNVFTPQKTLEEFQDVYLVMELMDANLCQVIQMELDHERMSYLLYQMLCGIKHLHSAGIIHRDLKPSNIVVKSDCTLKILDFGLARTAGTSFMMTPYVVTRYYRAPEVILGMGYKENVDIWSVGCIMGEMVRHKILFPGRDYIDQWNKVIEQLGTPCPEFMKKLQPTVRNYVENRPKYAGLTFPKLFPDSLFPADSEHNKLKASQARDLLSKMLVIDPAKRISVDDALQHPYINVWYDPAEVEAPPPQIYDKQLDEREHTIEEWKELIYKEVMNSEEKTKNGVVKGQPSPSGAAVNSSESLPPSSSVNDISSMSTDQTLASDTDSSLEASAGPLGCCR

Row | effect of a mutation on the interaction | Variant
15 | with no effect | MSRVPSPPPPAEMSSGPVAESWCYTQIKVVKFSYMWTINNFSFCREEMGEVIKSSTFSSGANDKLKWCLRVNPKGLDEESKDYLSLYLLLVSCPKSEVRAKFKFSILNAKGEETKAMESQRAYRFVQGKDWGVKKFIRRDFLLDEANGLLPDDKLTLFCEVSVVQDSVNISGQNTMNMVKVPECRLADELGGLWENSRFTDCCLCVAGQEFQAHKAILAARSPVFSAMFEHEMEESKKNRVEINDVEPEVFKEMMCFIYTGKAPNLDKMADDLLAAADKYALERLKVMCEDALCSNLSVENAAEILILADLHSADQLKTQAVDFINYHASDVLETSGWKSMVVSHPHLVAEAYRSLASAQCPFLGPPRKRLKQS [F133V]

Source: IntAct's records for PubMed 35512704
